Reference: patent US20060292634A1
Read-outs that look alike come from different tables or passages of the source.

How the values were obtained:
[1] = molecular target: ELK (3% skim milk powder solution); experiment: ELISA, ELK-coated control well, ~50 ng iMab per well, anti-VSV-HRP; urea-purified
[2] = molecular target: ELK (3% skim milk powder solution); experiment: ELISA, ELK-coated control well, ~20 ng iMab per well, anti-VSV-HRP; urea-purified
[3] = molecular target: chicken lysozyme (chicken), P00698; experiment: ELISA vs. lysozyme, iMab dilution 1:10, before pH 4.8 precipitation; conditions: remark: other sources report otherwise
[4] = molecular target: chicken lysozyme (chicken), P00698; experiment: ELISA vs. lysozyme, iMab dilution 1:100, before pH 4.8 precipitation; conditions: remark: other sources report otherwise
[5] = molecular target: chicken lysozyme (chicken), P00698; experiment: ELISA vs. lysozyme, iMab dilution 1:1000, before pH 4.8 precipitation; conditions: remark: other sources report otherwise
[6] = molecular target: chicken lysozyme (chicken), P00698; experiment: ELISA vs. lysozyme, iMab dilution 1:10,000, before pH 4.8 precipitation; conditions: remark: other sources report otherwise
[7] = molecular target: ELK (3% skim milk powder solution); experiment: ELISA, ELK-coated control well, ~50 ng iMab per well, anti-VSV-HRP; heat (60 °C) purified
[8] = molecular target: chicken lysozyme (chicken), P00698; experiment: ELISA vs. lysozyme, iMab dilution 1:10, after precipitation at pH 4.8 and redissolving; conditions: remark: other sources report otherwise
[9] = molecular target: chicken lysozyme (chicken), P00698; experiment: ELISA vs. lysozyme, iMab dilution 1:100, after precipitation at pH 4.8 and redissolving; conditions: remark: other sources report otherwise
[10] = molecular target: chicken lysozyme (chicken), P00698; experiment: ELISA vs. lysozyme, iMab dilution 1:1000, after precipitation at pH 4.8 and redissolving; conditions: remark: other sources report otherwise
[11] = molecular target: chicken lysozyme (chicken), P00698; experiment: ELISA, lysozyme-coated well (100 µg/ml), ~50 ng iMab per well, anti-VSV-HRP; urea-purified; conditions: remark: other sources report otherwise
[12] = molecular target: chicken lysozyme (chicken), P00698; experiment: ELISA vs. lysozyme, iMab dilution 1:10,000, after precipitation at pH 4.8 and redissolving; conditions: remark: other sources report otherwise
[13] = molecular target: chicken lysozyme (chicken), P00698; experiment: ELISA, lysozyme-coated well (100 µg/ml), ~50 ng iMab per well, anti-VSV-HRP; heat (60 °C) purified; conditions: remark: other sources report otherwise
[14] = molecular target: ELK (3% skim milk powder solution); experiment: ELISA, ELK-coated control well, ~5 ng iMab per well, anti-VSV-HRP; urea-purified
[15] = molecular target: ELK (3% skim milk powder solution)

Sequence of chicken lysozyme (chicken), P00698 (P00698 19-147 limits assumed): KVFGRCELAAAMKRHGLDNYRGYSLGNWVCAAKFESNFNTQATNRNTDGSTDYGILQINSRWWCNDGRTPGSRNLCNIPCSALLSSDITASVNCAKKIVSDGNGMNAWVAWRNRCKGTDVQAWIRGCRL

B1: iMab1202 (designed binder, not shown: small tags and cut ends)
chain: IVKLVMEKRGNFENGQDCKLTIRASGYTIGPACDGFFCQFPSDDSFSTEDNMGGGITVNDAMKPQFDIRRDNAKGTWTLSMDFQPEGIYEMQCAADSTIYASYYECGHGLSTGGYGYDNPVRLGGFDVDVPDV
Binder B1 has an Absorbtion (450 nm) [1] of 0.041 A450.

B2: iMab101 (designed binder, not shown: small tags and cut ends)
chain: VKLVEKGGNFVENDDDLKLTCRASGYTIGPYCMGWFRQAPNDDSTNVATINMGTVTLSMDDLQPEDSAEYNCAADSTIYASYYECGHGLSTGGYGYDSHYRGQGTDVTVSS
B2 showed an Absorbtion (450 nm) [2] of 0.043 A450.

B3: iMab1302 (designed binder, not shown: small tags and cut ends)
chain: VVKVVIKPSQNFIENGEDKKFTCRASGYTIGPKCIGWFSQNPEDDSTNVATINMGGGITYYGDSVKERFDIRRDNAKDTSTLSIDDAQPEDAGIYKCAADSTIYASYYECGHGLSTGGYGYDSEATVGVDIFVKLM
B3 showed an Absorbtion (450 nm) [1] of 0.045 A450.

B4: iMab111 (designed binder, not shown: small tags and cut ends)
chain: NVKLVCKGGNFVENDDDLKLTCRAEGYTIGPYCMGWFRQAPNDDSTNVATINMGGGITYYGDSVKERFDIRRDNASNTVTLSMDDLQPEDSAEYNCAGDSTIYASYYECGHGLSTGGYGYDSHYRCQGTDVTVSS
Binder B4 has an Absorbtion (450 nm) [1] of 0.043 A450.

B5: iMab100 (designed binder, not shown: small tags and cut ends)
chain: NVKLVEKGGNFVENDDDLKLTCRAEGYTIGPYCMGWFRQAPNDDSTNVATINMGGGITYYGDSVKERFDIRRDNASNTVTLSMDDLQPEDSAEYNCAGDSTIYASYYECGHGLSTGGYGYDSHYRGQGTDVTVSS
In the case of B5, the Absorbtion (450 nm) [1] is reported as 0.04 A450, the Signal on Elisa [3] is reported as 0.36 and the Signal on Elisa [4] is reported as 0.228. For the same binder, the Signal on Elisa [5] was 0.128, the Signal on Elisa [6] was 0.059 and the Absorbtion (450 nm) [7] was 0.041 A450. The Signal on Elisa [8] was 0.39, the Signal on Elisa [9] was 0.263 and the Signal on Elisa [10] was 0.169. It also gave an Absorbtion (450 nm) [11] of 0.494 A450, a Signal on Elisa [12] of 0.059 and an Absorbtion (450 nm) [13] of 0.369 A450.

B6: iMab122 (designed binder, not shown: small tags and cut ends)
chain: NVKLVEKGGNFVENDDDLKLTCRASGRTFSSRTMGWFRQAPNDDSTNVATIRWNGGSTYYTNYGDSVKERFDIRVDQASNTVTLSMDDLQPEDSAEYNCAGTDIGDGWSGRYDYRGQGTDVTVSS
B6 showed an Absorbtion (450 nm) [1] of 0.051 A450.

B7: iMab1602 (designed binder, not shown: small tags and cut ends)
chain: AVKPVIGSKAPNFGENGDVKTIDRASGYTIGPTCGGVFFQGPTDDSTNVATINMGGGITYYGDSVKETFDIRRDNAKSTRTESYDDNQPEGLTEVKCAADSTIYASYYECGHGLSTGGYGYDVSSRLYGYDILVGTQ
Binder B7 has an Absorbtion (450 nm) [1] of 0.043 A450.

B8: iMab1200 (designed binder)
chain: HGLPMEKRGNFIVGQNCSLTCPASGYTIGPQCVFNCYFNSALAFSTENMGEWTLDMVFSDAGIYTMCAADSTIYASYYECGHGLSTGGYGYNPVSLGSFVVDSP
B8 was tested, and the Absorbtion (450 nm) [14] was 0.04 A450.

B9: iMab701 (designed binder)
chain: MASTITCEASGYTIGPACVAFDTTLGNNMGTYSAPLTSTTLGVATVTCAADSTIYASYYECGHGLSTGGYGYAAFSVPSVTVNFTA
For B9, the Absorbtion (450 nm) [15] was 0.069 A450.

B10: iMab1300 (designed binder, not shown: small tags and cut ends)
chain: LQVDIKPSQGEISVGESKFFLCQASGYTIGPCISWFSPNGEKLNMGSSTLTIYNANIDDAGIYKCAADSTIYASYYECGHGLSTGGYGYQSEATVNVKIFQ
Binder B10 has an Absorbtion (450 nm) [1] of 0.041 A450.
